# Experimental data as given in US20250152742A1, “COMPOSITIONS AND METHODS FOR NEUROLOGICAL DISEASES” (Trames Bio, Inc., priority 2022, published 2025).
# Tested on: engineered chimeric receptor SEQ ID NO: 33 and its mutants (human α7-nAChR ligand binding domain / human GlyRα1 ion pore domain) in Lenti-X 293T cells
# Assay: YFP fluorescence quenching anion reporter plate reader assay (percent quench, EC50)
# Assay type: cell-based
# Conditions: for YFP fluorescence quenching using CNL001 (percent quench): receptor named in row; for YFP fluorescence quenching using Facinicline, 30 nM fac: ligand Facinicline 30 nM; for YFP fluorescence quenching using Facinicline, 300 nM fac: ligand Facinicline 300 nM; for YFP fluorescence quenching using Facinicline, 30 uM fac: ligand Facinicline 30 uM; for YFP fluorescence quenching using TC-6987, 1 uM tc6987: ligand TC-6987 1 uM; for YFP fluorescence quenching using TC-6987, 10 uM tc6987: ligand TC-6987 10 uM; for YFP fluorescence quenching using TC-6987, 500 uM tc6987: ligand TC-6987 500 uM; for YFP fluorescence quenching using Varenicline, 3 nM var: ligand Varenicline 3 nM; for YFP fluorescence quenching using Varenicline, 30 nM var: ligand Varenicline 30 nM; for YFP fluorescence quenching using Varenicline, 300 nM var: ligand Varenicline 300 nM; for YFP fluorescence quenching using Varenicline, 500 nM var: ligand Varenicline 500 nM; for YFP fluorescence quenching using Varenicline, 1 uM var: ligand Varenicline 1 uM
# In short: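 Lenti-X 293T cells co-expressing an anion-quenchable YFP were transiently transfected with receptor DNA, then ligand was added in NaI-substituted buffer (pH 7.2) after 30 min at 37 °C. Fluorescence was read about 2 min; percent quench = mean of last 10 s over 15 s pre-ligand baseline.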
# [1] = 1 nM CNL001, first column so headed
# [2] = 1 nM CNL001, second column so headed
# [3] = 3 nM brd (TC-5619/Bradanicline)
# [4] = 10 nM CNL001, first column so headed
# [5] = 10 nM CNL001, second column so headed
# [6] = 30 nM brd (TC-5619/Bradanicline)
# [7] = 50 nM CNL001, first column so headed
# [8] = 50 nM CNL001, second column so headed
# [9] = 100 nM CNL001, first column so headed
# [10] = 100 nM CNL001, second column so headed
# [11] = 300 nM brd (TC-5619/Bradanicline)
# [12] = 1 uM CNL001, first column so headed
# [13] = 1 uM CNL001, second column so headed
molecule,measurement,setting,value
"CODA337: engineered receptor: L131N in SEQ ID NO: 33 (protein, synthetic sequence of chimeric LGIC) MRCSPGGVWLALAASLLHVSLQGEFQRKLYKELVKNYNPLERPVANDSQPLTVYFSLSLLQIMDVDEKNQVLTTNIWLQMSWTDHYLQWNVSEYPGVKTVRFPDGQIWKPDILLYNSADERFDATFHTNVNVNSSGHCQYLPPGIFKSSCPMDLKNFPMDVQTCKLKFGSWSYGGWSLDLQMQEADISGYIPNGEWDLVGIPGKRSERFYECCKEPYPDVTFTVTMRRRMGYYLIQMYIPSLLIVILSWISFWINMDAAPARVGLGITTVLTMTTQSSGSRASLPKVSYVKAIDIWMAVCLLFVFSALLEYAAVNFVSRQHKELLRFRRKRRHHKSPMLNLFQEDEAGEGRFNFSAYGMGPACLQAKDGISVKGANNSNTTNPPPAPSKSPEEMRKLFIQRAKKIDKISRIGFPMAFLIFNMFYWIIYKIVRREDVHNQ",YFP fluorescence quenching using CNL001 (percent quench),[1],76.917%
same,YFP fluorescence quenching using CNL001 (percent quench),[2],79.554%
same,YFP fluorescence quenching using TC-5619/Bradanicline (percent quench),[3],71.02%
same,YFP fluorescence quenching using CNL001 (percent quench),[4],79.479%
same,YFP fluorescence quenching using CNL001 (percent quench),[5],79.506%
same,YFP fluorescence quenching using TC-6683 (percent quench),30 nM TC-6683,−11.51%
same,YFP fluorescence quenching using TC-5619/Bradanicline (percent quench),[6],78.43%
same,YFP fluorescence quenching using CNL001 (percent quench),[7],81.465%
same,YFP fluorescence quenching using CNL001 (percent quench),[8],81.297%
same,YFP fluorescence quenching using ABT-126 (percent quench),50 nM abt (ABT-126),−11.64%
same,YFP fluorescence quenching using CNL001 (percent quench),[9],82.619%
same,YFP fluorescence quenching using CNL001 (percent quench),[10],81.722%
same,YFP fluorescence quenching (percent quench),100 nM CNL002,76.37%
same,YFP fluorescence quenching using ABT-126 (percent quench),100 nM abt (ABT-126),34.79%
same,YFP fluorescence quenching using AZD-0328 (percent quench),100 nM azd0328,82.1%
same,YFP fluorescence quenching using TC-6683 (percent quench),300 nM TC-6683,−13.17%
same,YFP fluorescence quenching using ABT-126 (percent quench),300 nM abt (ABT-126),60.08%
same,YFP fluorescence quenching using AZD-0328 (percent quench),300 nM azd0328,82.52%
same,YFP fluorescence quenching using TC-5619/Bradanicline (percent quench),[11],77.12%
same,YFP fluorescence quenching using CNL001 (percent quench),[12],81.96%
same,YFP fluorescence quenching using CNL001 (percent quench),[13],81.773%
same,YFP fluorescence quenching (percent quench),1 uM CNL002,80.18%
same,YFP fluorescence quenching using ABT-126 (percent quench),1 uM abt (ABT-126),65.99%
same,YFP fluorescence quenching using TC-6683 (percent quench),3 uM TC-6683,−5.46%
same,YFP fluorescence quenching (percent quench),10 uM ach (acetylcholine),28.32%
same,YFP fluorescence quenching (percent quench),30 uM CNL002,80.93%
same,YFP fluorescence quenching using TC-6683 (percent quench),30 uM TC-6683,8.53%
same,YFP fluorescence quenching using AZD-0328 (percent quench),30 uM azd0328,82.32%
same,YFP fluorescence quenching using TC-6683 (percent quench),100 uM TC-6683,14.41%
same,YFP fluorescence quenching (percent quench),100 uM ach (acetylcholine),81.8%
same,YFP fluorescence quenching (percent quench),1 mM ach (acetylcholine),71.22%
same,YFP fluorescence quenching (percent quench),3 mM ach (acetylcholine),73.7%
same,"YFP fluorescence quenching using Facinicline, 30 nM fac",,82.25
same,"YFP fluorescence quenching using Facinicline, 300 nM fac",,83.59
same,"YFP fluorescence quenching using Facinicline, 30 uM fac",,82.82
same,"YFP fluorescence quenching using TC-6987, 1 uM tc6987",,79.06
same,"YFP fluorescence quenching using TC-6987, 10 uM tc6987",,82.36
same,"YFP fluorescence quenching using TC-6987, 500 uM tc6987",,80.19
same,"YFP fluorescence quenching using Varenicline, 3 nM var",first column,3.093
same,"YFP fluorescence quenching using Varenicline, 3 nM var",second column,12.327
same,"YFP fluorescence quenching using Varenicline, 30 nM var",first column,77.097
same,"YFP fluorescence quenching using Varenicline, 30 nM var",second column,77.653
same,"YFP fluorescence quenching using Varenicline, 300 nM var",first column,79.446
same,"YFP fluorescence quenching using Varenicline, 300 nM var",second column,79.998
same,"YFP fluorescence quenching using Varenicline, 500 nM var",first column,80.691
same,"YFP fluorescence quenching using Varenicline, 500 nM var",second column,80.309
same,"YFP fluorescence quenching using Varenicline, 1 uM var",first column,80.258
same,"YFP fluorescence quenching using Varenicline, 1 uM var",second column,79.509
"CODA945: engineered receptor: Q139E in SEQ ID NO: 33 (protein, synthetic sequence of chimeric LGIC) MRCSPGGVWLALAASLLHVSLQGEFQRKLYKELVKNYNPLERPVANDSQPLTVYFSLSLLQIMDVDEKNQVLTTNIWLQMSWTDHYLQWNVSEYPGVKTVRFPDGQIWKPDILLYNSADERFDATFHTNVLVNSSGHCEYLPPGIFKSSCPMDLKNFPMDVQTCKLKFGSWSYGGWSLDLQMQEADISGYIPNGEWDLVGIPGKRSERFYECCKEPYPDVTFTVTMRRRMGYYLIQMYIPSLLIVILSWISFWINMDAAPARVGLGITTVLTMTTQSSGSRASLPKVSYVKAIDIWMAVCLLFVFSALLEYAAVNFVSRQHKELLRFRRKRRHHKSPMLNLFQEDEAGEGRFNFSAYGMGPACLQAKDGISVKGANNSNTTNPPPAPSKSPEEMRKLFIQRAKKIDKISRIGFPMAFLIFNMFYWIIYKIVRREDVHNQ",YFP fluorescence quenching using CNL001 (percent quench),[1],6.65%
same,YFP fluorescence quenching using CNL001 (percent quench),[2],13.512%
same,YFP fluorescence quenching using TC-5619/Bradanicline (percent quench),[3],14.15%
same,YFP fluorescence quenching using CNL001 (percent quench),[4],78.678%
same,YFP fluorescence quenching using CNL001 (percent quench),[5],82.723%
same,YFP fluorescence quenching using TC-6683 (percent quench),30 nM TC-6683,−26.47%
same,YFP fluorescence quenching using TC-5619/Bradanicline (percent quench),[6],78.18%
same,YFP fluorescence quenching using CNL001 (percent quench),[7],84.91%
same,YFP fluorescence quenching using CNL001 (percent quench),[8],84.849%
same,YFP fluorescence quenching using ABT-126 (percent quench),50 nM abt (ABT-126),−8.27%
same,YFP fluorescence quenching using CNL001 (percent quench),[9],85.046%
same,YFP fluorescence quenching using CNL001 (percent quench),[10],84.642%
same,YFP fluorescence quenching (percent quench),100 nM CNL002,60.5%
same,YFP fluorescence quenching using ABT-126 (percent quench),100 nM abt (ABT-126),4.76%
same,YFP fluorescence quenching using AZD-0328 (percent quench),100 nM azd0328,−5.79%
same,YFP fluorescence quenching using TC-6683 (percent quench),300 nM TC-6683,−18.62%
same,YFP fluorescence quenching using ABT-126 (percent quench),300 nM abt (ABT-126),30.88%
same,YFP fluorescence quenching using AZD-0328 (percent quench),300 nM azd0328,58.47%
same,YFP fluorescence quenching using TC-5619/Bradanicline (percent quench),[11],76.8%
same,YFP fluorescence quenching using CNL001 (percent quench),[12],85.493%
same,YFP fluorescence quenching using CNL001 (percent quench),[13],86.071%
same,YFP fluorescence quenching (percent quench),1 uM CNL002,75.41%
same,YFP fluorescence quenching using ABT-126 (percent quench),1 uM abt (ABT-126),60.66%
same,YFP fluorescence quenching using TC-6683 (percent quench),3 uM TC-6683,−13.39%
same,YFP fluorescence quenching (percent quench),10 uM ach (acetylcholine),−1.25%
same,YFP fluorescence quenching (percent quench),30 uM CNL002,77.46%
same,YFP fluorescence quenching using TC-6683 (percent quench),30 uM TC-6683,−16.6%
same,YFP fluorescence quenching using AZD-0328 (percent quench),30 uM azd0328,66.57%
same,YFP fluorescence quenching using TC-6683 (percent quench),100 uM TC-6683,−12.89%
same,YFP fluorescence quenching (percent quench),100 uM ach (acetylcholine),71.21%
same,YFP fluorescence quenching (percent quench),1 mM ach (acetylcholine),71.79%
same,YFP fluorescence quenching (percent quench),3 mM ach (acetylcholine),76.04%
same,"YFP fluorescence quenching using Facinicline, 30 nM fac",,−7.16
same,"YFP fluorescence quenching using Facinicline, 300 nM fac",,71.17
same,"YFP fluorescence quenching using Facinicline, 30 uM fac",,72.14
same,"YFP fluorescence quenching using TC-6987, 1 uM tc6987",,−0.97
same,"YFP fluorescence quenching using TC-6987, 10 uM tc6987",,21.53
same,"YFP fluorescence quenching using TC-6987, 500 uM tc6987",,7.39
same,"YFP fluorescence quenching using Varenicline, 3 nM var",first column,8.207
same,"YFP fluorescence quenching using Varenicline, 3 nM var",second column,7.835
same,"YFP fluorescence quenching using Varenicline, 30 nM var",first column,9.509
same,"YFP fluorescence quenching using Varenicline, 30 nM var",second column,10.204
same,"YFP fluorescence quenching using Varenicline, 300 nM var",first column,9.818
same,"YFP fluorescence quenching using Varenicline, 300 nM var",second column,12.539
same,"YFP fluorescence quenching using Varenicline, 500 nM var",first column,16.762
same,"YFP fluorescence quenching using Varenicline, 500 nM var",second column,15.21
same,"YFP fluorescence quenching using Varenicline, 1 uM var",first column,48.292
same,"YFP fluorescence quenching using Varenicline, 1 uM var",second column,54.096
